Test results from paper PMC8998314, “MYB2 Is Important for Tapetal PCD and Pollen Development by Directly Activating Protease Expression in Arabidopsis”.

T1: HIS-MYB2 (Arabidopsis thaliana, UniProt Q39028 1-273)
T1 sequence: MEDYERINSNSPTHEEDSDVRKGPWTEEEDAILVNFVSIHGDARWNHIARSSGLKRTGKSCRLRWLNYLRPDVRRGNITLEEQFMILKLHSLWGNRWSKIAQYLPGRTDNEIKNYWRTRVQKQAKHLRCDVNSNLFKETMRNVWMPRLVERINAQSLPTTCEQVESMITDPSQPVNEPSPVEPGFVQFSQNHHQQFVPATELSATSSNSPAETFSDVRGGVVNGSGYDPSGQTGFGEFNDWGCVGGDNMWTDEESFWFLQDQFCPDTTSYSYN

B1: CEP1 short probe(s) with AAACCA (dsDNA)
DNA 1: GCTCCTGAAAACCATAATCAGA
DNA 2: TCTGATTATGGTTTTCAGGAGC
B2: CEP1 short probe with TAACTG (dsDNA)
DNA 1: TTAGACAACAGTTATTGTAATG
DNA 2: CATTACAATAACTGTTGTCTAA

Molecular target: T1, HIS-MYB2
Experiment: EMSA; EMSA binding buffer (Beyotime Chemiluminescent EMSA kit, composition and pH not stated), 30 min at 25 °C
Conditions: protein: recombinant; tags: His (pET-30a); label: biotin

Row | Binder | binding result
1 | B1 | binds
2 | B2 | binds
